Positions count from the first letter of the chain named.

We go through 3 molecules from publication doi:10.1101/2021.12.01.470767 (bioRxiv, 2021).

What all share (assay): flow cytometry on cells
Test [1] deals with full-length MERS-CoV S, cell surface-expressed (MERS-CoV, strain , UniProt K9N5Q8).
Test [2] addresses full-length S of endemic HCoV OC43, cell surface-expressed (Human coronavirus OC43, strain not …, UniProt P36334).
For test [3], the target named is full-length SARS-CoV-2 S (WT), cell surface-expressed (SARS-CoV-2, ancestral (Wuhan-Hu-1), UniProt P0DTC2).
Test [4] concerns the target full-length S of endemic HCoV NL63, cell surface-expressed (Human coronavirus NL63, strain not …, UniProt Q6Q1S2).
The target of test [5] is full-length S of endemic HCoV 229E, cell surface-expressed (Human coronavirus 229E, strain not …, UniProt P15423).
Test [6] addresses full-length SARS-CoV S, cell surface-expressed (SARS-CoV, strain , UniProt P59594).
Test [7] concerns the target full-length S of bat CoV SHC014, cell surface-expressed (Bat SARS-like coronavirus RsSHC014, UniProt U5WLK5).

B1: COVA1-07 (antibody, V domains shown)
VH: QVQLVESGAEVKKPGSSVKVSCKASGGTLSSYAITWVRQAPGQGLEWVGGIIPIFGTANYAQKFQGRVTITADESTSTAYMELSSLRSEDTAVYYCARVGAYDSSGYSNDYWGQGTLVTVSS
VL: DIQLTQSPATLSLSPGERATLSCRASQSVSSYLAWYQQKPGQAPRLLIYDASNRATGIPARFSGSGSGTDFTLTISSLEPEDFAVYYCQQRSNWPPRVTFGGGTKVEIK
For B1, the binding result in test [1] is on record as “no binding (tested: 50 μg/mL)”; in test [2] it was “no binding (tested: 50 μg/mL)”; in test [3], “binds”; in test [4] it was “no binding (tested: 50 μg/mL)”; in test [5], “no binding (tested: 50 μg/mL)”; in test [6], “binds”. For the same molecule, the binding result in test [7] was “binds”.

B2: COVA2-18 (antibody, V domains shown)
VH: EVQLVQSGAEVKKPGSSVKVSCKASGGTFSSYAISWVRQAPGQGLEWMGGIIPIFGTTNYAQKFQGRVTITTDESTSTAYMELSSLRSEDTAVYYCARVYSYDSSGYYLEYWGQGTRVTVSS
VL: B1 VL with D1E, Q3V, R97S, V98I, G102Q, K105R, V106L
As to B2, the binding result in test [1] was “no binding (tested: 50 μg/mL)”; in test [2] it was “no binding (tested: 50 μg/mL)”; in test [3], “binds”; in test [4], “no binding (tested: 50 μg/mL)”; in test [5], “no binding (tested: 50 μg/mL)”; in test [6] it was “binds”. For the same molecule, the binding result in test [7] was “binds”.

B3: COVA2-14 (antibody, V domains shown)
VH: B2 VH with E1Q, S35I, T58A, Y100R, S101Y, L109E, E110D, R117L
VL: B1 VL with D1E, Q3V, K39E, R97M, V98Y, G102Q
Regarding B3, the binding result was “no binding (tested: 50 μg/mL)” in test [1]; “no binding (tested: 50 μg/mL)” in test [2]; “binds” in test [3]; “no binding (tested: 50 μg/mL)” in test [4]; “no binding (tested: 50 μg/mL)” in test [5]; “binds” in test [6]. The binding result in test [7] is “binds”.
